Results reported in US20130039923A1 (Novo Nordisk, published 2013).

Columns and labels:
Test in all cases: Ala-scan peptide array of hIL20 74-96 on cellulose; fluorescein-labelled antibody; fluorescence as OD
[1] = target: T1, Peptide no. 53 (Figure 8A)
T1 construct: Ala-scan peptide on the array; also called Peptide no; S87A
T1 peptide: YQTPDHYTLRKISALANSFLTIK
Method: (§1) The screenings were done using fluorescence labelled antibodies. The labelling was done by gel-filtering the antibody stock against 1% NaHCO3, using NAP5 column (GE Healthcare according the manual from manufacturer. This was followed by adding 25 mole equivalents of 5(6)-carboxyfluorescein N-hydroxysuccinimide ester (Sigma, C1609) dissolved in DMSO. The coupling was allowed to continue for 2 hours followed by a gelfiltration against TRIS washing buffer (50 mM TRIS, pH=7.4, 0.15M NaCl, 0.1 M ArgHCl, 0.05% Tween 20) in order to removed uncoupled fluorescein.
(§2) Screening of arrays were done by adding 10 μl of antibody to 30 ml incubation buffer (0.5% BSA, 50 mM TRIS, pH=7.4, 0.15M NaCl, 0.1 M ArgHCl, 0.05% Tween 20). The sheets were incubated for 1-2 hours, followed by washing five times with washing buffer. […] The fluorescence intensity were measured and transformed into digits that were exported to Prism 5 (Graph Pad Software, USA) for further analysis.

[2] = target: T2, Peptide no. 43 (Figure 8A)
T2 construct: Ala-scan peptide on the array; also called Peptide no; P77A
T2 peptide: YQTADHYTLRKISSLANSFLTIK
Method: as §1, §2

[3] = target: T3, Peptide no. 51 (Figure 8A)
T3 construct: Ala-scan peptide on the array; also called Peptide no; I85A
T3 peptide: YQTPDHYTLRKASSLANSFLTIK
Method: as §1, §2

[4] = target: T4, Peptide no. 47 (Figure 8A)
T4 construct: Ala-scan peptide on the array; also called Peptide no; T81A
T4 peptide: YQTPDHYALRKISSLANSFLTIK
Method: as §1, §2

[5] = target: T5, Peptide no. 57 (Figure 8A)
T5 construct: Ala-scan peptide on the array; also called Peptide no; F92A
T5 peptide: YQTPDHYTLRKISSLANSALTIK
Method: as §1, §2

[6] = target: T6, Peptide no. 59 (Figure 8A)
T6 construct: Ala-scan peptide on the array; also called Peptide no; T94A
T6 peptide: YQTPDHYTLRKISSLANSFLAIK
Method: as §1, §2

[7] = target: T7, Peptide no. 48 (Figure 8A)
T7 construct: Ala-scan peptide on the array; also called Peptide no; L82A
T7 peptide: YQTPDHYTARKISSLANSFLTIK
Method: as §1, §2

[8] = target: T8, Peptide no. 50 (Figure 8A)
T8 construct: Ala-scan peptide on the array; also called Peptide no; K84A
T8 peptide: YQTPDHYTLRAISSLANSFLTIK
Method: as §1, §2

[9] = target: T9, Peptide no. 42 (Figure 8A)
T9 construct: Ala-scan peptide on the array; also called Peptide no; T76A
T9 peptide: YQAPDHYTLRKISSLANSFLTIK
Method: as §1, §2

[10] = target: T10, Peptide no. 46 (Figure 8A)
T10 construct: Ala-scan peptide on the array; also called Peptide no; Y80A
T10 peptide: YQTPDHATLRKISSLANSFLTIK
Method: as §1, §2

[11] = target: T11, Peptide no. 52 (Figure 8A)
T11 construct: Ala-scan peptide on the array; also called Peptide no; S86A
T11 peptide: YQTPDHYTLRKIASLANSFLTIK
Method: as §1, §2

[12] = target: T12, Peptide no. 54 (Figure 8A)
T12 construct: Ala-scan peptide on the array; also called Peptide no; L88A
T12 peptide: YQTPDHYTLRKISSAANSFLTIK
Method: as §1, §2

[13] = target: T13, Peptide no. 61 (Figure 8A)
T13 construct: Ala-scan peptide on the array; also called Peptide no; K96A
T13 peptide: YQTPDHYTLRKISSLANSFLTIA
Method: as §1, §2

[14] = target: T14, Peptide no. 60 (Figure 8A)
T14 construct: Ala-scan peptide on the array; also called Peptide no; I95A
T14 peptide: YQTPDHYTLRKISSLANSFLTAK
Method: as §1, §2

Measured: binding result

B1: human anti-hIL20 monoclonal antibody 15D2 (antibody, V domains shown)
VH: QVQLVQSGAEVKRPGASVKVSCKASGYTFTNDIIHWVRQAPGQRLEWMGWINAGYGNTQYSQNFQDRVSITRDTSASTAYMELISLRSEDTAVYYCAREPLWFGESSPHDYYGMDVWGQGTTVTVSS
VL: AIQLTQSPSSLSASVGDRVTITCRASQGISSALAWYQQKPGKAPKLLIYDASSLESGVPSRFSGSGSGTDFTLTISSLQPEDFATYYCQQFNSYPLTFGGGTKVEIKR
notes: also called 15D2-wt; 15D2 wild-type
binds: [1] | [2] | [3] | [4] | [5] | [6] | [7] | [8] | [9] | [10] | [11] | [12] | [13] | [14]
